Test results reported in patent US7790697B2, “Compositions and methods for inhibiting the synthesis or expression of MMP-1” (Trustees of Dartmouth College, priority 2004, dated 2010).

Experiments:
[1] = test system: MMP-1 mRNA; experiment: MMP-1 mRNA by real-time RT-PCR in transiently transfected NIH/3T3 cells; assay type: cell-based, human; conditions: NIH/3T3 cells co-transfected with pCMV-MMP-1 and peGFP; 48 hours after transfection; normalized to eGFP mRNA; P=0.015
Procedure: (§1) Transfection of NIH/3T3 and MDA-231 Cells. NIH/3T3 cells were transiently transfected with LIPOFECTAMINE™ 2000 (INVITROGEN™, Carlsbad, Calif.) along with 0.5 μg peGFP, 0.5 μg pCMV-MMP-1, and 2 μg PSUPER™-MMP-1 shRNA or PSUPER™ with no insert. Transfection efficiency was monitored using eGFP signal. Total cellular RNA was harvested 48 hours after transfection and analyzed for MMP-1 mRNA by real-time RT-PCR. MDA-231 cells were stably transfected in triplicate with LIPOFECTAMINE™ 2000 (INVITROGEN™, Carlsbad, Calif.) and 2 μg of the PSUPER™.Retro.Neo.GFP plasmid containing the MMP-1 shRNA, the scrambled sequence or just the empty vector. Stable cell lines were selected by growth in the presence of 1 mg/mL G418 (STRATAGENE®, La Jolla, Calif.). Individual, stable cell lines were isolated with cloning disks according to the manufacturer's instructions (PGC Scientifics, Frederick, Md.).
(§2) RNA Isolation and Real-Time RT-PCR.
To test the efficacy of the shRNA inhibition of MMP-1 expression, shRNA composed of SEQ ID NO:1 and SEQ ID NO:2 was cloned it into the PSUPER™ shRNA vector. Two PSUPER™ plasmids were used; one with the MMP-1 shRNA sequence to block MMP-1 gene expression, and one with only the plasmid vector. […]

[2] = test system: MT1-MMP (MMP-14) mRNA; experiment: Specificity qRT-PCR, MT1-MMP (MMP-14) mRNA in stable MDA-231 cells; assay type: cell-based, human; conditions: stable MDA-231 cell lines, 24 hour serum-free; group average ± S.D.; P=0.4 vs empty vector
Text: (§3) RNA Isolation and Real-Time RT-PCR. […] Real-Time PCR Primer Sequences. […] ID NO:7; MMP-1 reverse [NT] ID NO:8; MMP-2 forward [NT] ID NO:9; MMP-2 reverse [NT] ID NO:10; MMP-9 forward [NT] ID NO:11; MMP-9 reverse [NT] ID NO:12; MMP-13 forward [NT], SEQ ID NO:13; MMP-13 reverse [NT] ID NO:14; MMP-14 forward [NT] ID NO:15; MMP-14 reverse [NT] ID NO:16; GAPDH forward [NT] ID NO:17; GAPDH reverse [NT] ID NO:18; eGFP forward [NT] ID NO:19; eGFP reverse [NT] ID NO:20. Real-Time PCR Standards.

[3] = test system: MDA-231 cells; experiment: Cell proliferation assay (MTT); assay type: cell-based; conditions: from 24 to 48 hours (in 24 hours); p=0.13 vs empty vector
Procedure: Cell Proliferation Assay. The proliferation rate of the stably transfected MDA-231 cell lines at 24 and 48 hours was determined with a MTT assay as described in the manufacturer's protocol (ATCC). The optimum cell count was 10,000 cells per well of a 96-well tissue culture dish.
Therefore, the only measured differences between the two groups of cell lines were the levels of MMP-1 mRNA and protein.

[4] = test system: MMP-2 mRNA; experiment: Specificity qRT-PCR, MMP-2 mRNA in stable MDA-231 cells; assay type: cell-based, human; conditions: stable MDA-231 cell lines, 24 hour serum-free; group average ± S.D.; P=0.3 vs empty vector
Text: as §3

[5] = test system: interferon-responsive genes; experiment: Interferon response RT-PCR assay; assay type: cell-based, human; conditions: pooled stable MDA-231 cell lines
Procedure: Interferon Response RT-PCR Assay. RNA pooled from MDA-231 ells containing empty vector or the MMP-1 shRNA were reverse-transcribed with M-MLV reverse transcriptase (INVITROGEN™) according to the manufacturer's instructions. Briefly, 3 μg of RNA, 99 ng random hexamers, and 10 nmoles of dNTP were combined to a total volume of 12 μL. The mixture was incubated at 65° C. for 5 minutes and cooled to 4° C. Four μL of 5× […], 2 μL of 0.1 M DTT, and 1 μL of RNase inhibitor A (40 U/μL) were then added to the reaction and it was incubated at 37° C. for 2 minutes. One μL of M-MLV reverse transcriptase was added to the reaction and incubated at 25° C. for 10 minutes, 37° C. for 50 minutes and 70° C. for 15 minutes. The expression levels of 11 interferon-responsive genes and GAPDH were then estimated using semi-quantitative PCR and the human interferon-response MULTIGENE-12™ RT-PCR Profiling Kit (SuperArray Bioscience Co., Frederick, Md.).
To determine whether the MMP-1 shRNA was producing a shRNA-associated interferon response in the stable cell lines, the expression levels of 11 interferon-responsive genes was compared between pools of stable cell lines (Bridge, et al. (2003) Nat. Genet. 34:263-4).

[6] = test system: MMP-1 mRNA; experiment: MMP-1 mRNA by qRT-PCR in stably transfected MDA-231 cell lines; assay type: cell-based, human; conditions: for Copies of MMP-1 mRNA per pg GAPDH mRNA: average ± S.D.
Procedure: as §1, §2
After initial neomycin selection and isolation of individual stable cell lines, MMP-1 mRNA and protein levels were determined using quantitative RT-PCR (qRT-PCR) and ELISA. MMP-1 mRNA levels were measured in RNA harvested from stably transfected cell lines after a 24 hour incubation in serum-free medium and were normalized to GAPDH mRNA levels. MMP-1 protein levels were measured in the serum-free media of the cell lines after 24 hours of incubation and were normalized to total protein content of the cells. The ELISA measured total (active and zymogen) forms of MMP-1 protein. […] To control for differences introduced into the cell lines during selection, these three individual cell lines for each group were pooled, and all subsequent experiments were performed on pooled cells.

B1: MMP-1 shRNA: Vector-expressed small hairpin RNA, SEQ ID NO:1 (sense) and SEQ ID NO:2 (antisense), specific to bases 234-252 of MMP-1 mRNA (nucleic acid)
sense: GATCCCCACCAGATGCTGAAACCCTGTTCAAGAGACAGGGTTTCAGCATCTGGTTTTTTGGAAA
antisense: AGCTTTTCCAAAAAACCAGATGCTGAAACCCTGTCTCTTGAACAGGGTTTCAGCATCTGGTGGG
modifications: the letters are possibly those of the target site
MMP-1 mRNA levels lower than empty vector [1]: 73% | MT1-MMP mRNA level [2]: 107000 ± 46000 copies of the target gene/pg GAPDH | fold increase in metabolic activity [3]: 2.03±0.06 fold | MMP-2 mRNA level [4]: 8.8 ± 7.8 copies of the target gene/pg GAPDH | interferon response overall (11 interferon-responsive genes) [5]: no consistent upregulation of interferon-responsive gene expression | increase in expression of MxA and GBP1 compared to empty vector cell lines ([5]; semi-quantitative RT-PCR): ~50% | Copies of MMP-1 mRNA per pg GAPDH mRNA ([6]; Group of cell lines D1, Y2, Y7, P=0.004 vs empty vector): 6200 ± 3200 copies per pg GAPDH mRNA | Copies of MMP-1 mRNA per pg GAPDH mRNA ([6]; MDA-231 cell line D1): 8900 ± 3600 copies per pg GAPDH mRNA | Copies of MMP-1 mRNA per pg GAPDH mRNA ([6]; MDA-231 cell line Y2): 4600 ± 2500 copies per pg GAPDH mRNA | Copies of MMP-1 mRNA per pg GAPDH mRNA ([6]; MDA-231 cell line Y7): 5000 ± 2400 copies per pg GAPDH mRNA | reduction in MMP-1 mRNA levels compared to empty vector cell lines ([6]; three stable MDA-231 cell lines, 24 hour serum-free): greater than 90%
